US20230035859A1, “COMPOSITIONS AND METHODS FOR EPITOPE SCANNING” (priority 2019, published 2023)

Key:
HLA-A*02:01 [1] = molecular target: T1, HLA-A*02:01 (Homo sapiens, UniProt P04439, D140Y/D185E/D98H/E176V/E277Q/G131W/G231S/I119V/I121R/I166T/I218V/L300P/L318F/N151K/N90K/P208A/P217A/Q86G/Q94H/R138H/R169H/T345S); experiment: QuickSwitch Quant HLA-A*02:01 Tetramer control peptide exchange
HLA-A*02:01 [2] = molecular target: T1, HLA-A*02:01; assay type: cell-based
CD8+ T cells = assay type: cell-based, human; design: key: y = yes; TBD = to be determined
[3] = cited from earlier work
HLA-B*57:01 = HLA-B*57:01 (Homo sapiens, UniProt P01889, D201E/D98Y/E176V/E187L/E204Q/E69M/E70A/G107R/I90N/K202T/L105A/L119I/N104I/N87E/Q89R/Q94S/R106L/R155S/R180L/R86G/S101N/S121V/S35A/S48A/T118I/V36M/Y140S/Y91M); experiment: Random 9-mer EpiScan screen in HLA-B57-expressing EpiScan cells with and without abacavir; assay type: cell-based; details: 48 h abacavir treatment at 6 μM

Compound	% Peptide Exchange (HLA-A*02:01 [1])	EpiScan MFI (HLA-A*02:01 [2])	Patient tetramer positivity? (CD8+ T cells)	other results
AMDEFIERYKL [SARS-CoV-2 Orf1ab 6669-6679; used for tetramer staining]	96.89%	2.352	–	–
VMAYITGGV [SARS-CoV-2 Orf1ab 597-605; used for tetramer staining]	99.07%	4.528	–	–
VLYQDVNCTEV [SARS-CoV-2 HLA-A*02:01 peptide used for tetramer staining]	97.92%	5.598	–	–
YIDIGNYTV [SARS-CoV-2 HLA-A*02:01 peptide used for tetramer staining]	97.94%	4.421	–	–
SLPGVFCGV [SARS-CoV-2 HLA-A*02:01 peptide used for tetramer staining]	98.00%	6.418	y	–
TLATHGLAAV [SARS-CoV-2 HLA-A*02:01 peptide used for tetramer staining]	97.98%	4.040	–	–
VMVELVAEL [SARS-CoV-2 HLA-A*02:01 peptide used for tetramer staining]	98.63%	5.338	y	–
VMAYITGGVV [SARS-CoV-2 HLA-A*02:01 peptide used for tetramer staining]	99.07%	4.641	y	–
Nc1nc(NC2CC2)c2ncn([C@H]3C=C[C@@H](CO)C3)c2n1 [Abacavir]	–	–	–	hypersensitivity, share of patients [3]: around 5%; binding peptides with C-terminal Residue C, Abacavir treated (HLA-B*57:01): 3; binding peptides with C-terminal Residue F, Abacavir treated (HLA-B*57:01): 66; binding peptides with C-terminal Residue G, Abacavir treated (HLA-B*57:01): 4; binding peptides with C-terminal Residue I, Abacavir treated (HLA-B*57:01): 59; binding peptides with C-terminal Residue L, Abacavir treated (HLA-B*57:01): 10; binding peptides with C-terminal Residue M, Abacavir treated (HLA-B*57:01): 5; binding peptides with C-terminal Residue N, Abacavir treated (HLA-B*57:01): 1; binding peptides with C-terminal Residue R, Abacavir treated (HLA-B*57:01): 3; binding peptides with C-terminal Residue V, Abacavir treated (HLA-B*57:01): 28; binding peptides with C-terminal Residue W, Abacavir treated (HLA-B*57:01): 502; binding peptides with C-terminal Residue Y, Abacavir treated (HLA-B*57:01): 22
